Reference: IntAct's records for PubMed 19233177

B1: Polycomb complex protein BMI-1 (Homo sapiens), P35226 (parent)
chain: MHRTTRIKITELNPHLMCVLCGGYFIDATTIIECLHSFCKTCIVRYLETSKYCPICDVQVHKTRPLLNIRSDKTLQDIVYKLVPGLFKNEMKRRRDFYAAHPSADAANGSNEDRGEVADEDKRIITDDEIISLSIEFFDQNRLDRKVNKDKEKSKEEVNDKRYLRCPAAMTVMHLRKFLRSKMDIPNTFQIDVMYEEEPLKDYYTLMDIAYIYTWRRNGPLPLKYRVRPTCKRMKISHQRDGLTNAGELESDSGSDKANSPAGGIPSTSSCLPSPSTPVQSPHPQFPHISSTMNGTSNSPSGNHQSSFANRPRKSSVNGSSATSSG

Variants of: B1
Conditions: with ubc_human UBC

effect of a mutation on the interaction	Variant
increasing interaction	C18Y
